Target: Cdc13 full-length (FL) (Saccharomyces cerevisiae, UniProt P32797 1-924)
Assay: fluorescence anisotropy

Sequence of Cdc13 full-length (FL) (P32797 whole entry): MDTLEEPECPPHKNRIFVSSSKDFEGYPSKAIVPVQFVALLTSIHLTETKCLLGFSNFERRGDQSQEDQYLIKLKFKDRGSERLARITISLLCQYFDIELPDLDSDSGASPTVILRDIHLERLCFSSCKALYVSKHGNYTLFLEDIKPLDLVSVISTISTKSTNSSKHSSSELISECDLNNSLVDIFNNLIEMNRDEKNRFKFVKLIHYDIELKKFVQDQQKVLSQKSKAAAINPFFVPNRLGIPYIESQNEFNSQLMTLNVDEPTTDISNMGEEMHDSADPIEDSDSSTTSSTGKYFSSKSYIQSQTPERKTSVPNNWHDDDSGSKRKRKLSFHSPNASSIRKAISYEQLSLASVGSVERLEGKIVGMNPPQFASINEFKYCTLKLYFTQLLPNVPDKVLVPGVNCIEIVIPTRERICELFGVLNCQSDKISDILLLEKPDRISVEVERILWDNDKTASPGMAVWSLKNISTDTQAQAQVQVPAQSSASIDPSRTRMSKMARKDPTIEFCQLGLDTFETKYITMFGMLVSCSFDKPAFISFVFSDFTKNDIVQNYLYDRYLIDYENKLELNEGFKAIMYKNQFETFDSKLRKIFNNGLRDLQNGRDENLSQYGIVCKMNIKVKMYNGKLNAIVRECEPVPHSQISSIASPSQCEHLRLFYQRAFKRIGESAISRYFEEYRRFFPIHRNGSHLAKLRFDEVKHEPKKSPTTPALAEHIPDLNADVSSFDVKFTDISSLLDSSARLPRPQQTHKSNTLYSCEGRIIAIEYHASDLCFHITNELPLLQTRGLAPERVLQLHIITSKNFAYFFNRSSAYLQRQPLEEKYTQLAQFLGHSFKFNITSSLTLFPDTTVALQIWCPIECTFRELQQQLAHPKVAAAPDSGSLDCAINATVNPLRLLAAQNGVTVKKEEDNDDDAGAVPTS

B1: 7-base 3'-overhang telomeric DNA (mixed)
DNA: GTGGGTGTGTGTGTGGGGTGGTGTGTGTGG
?: CACCACCCCACACACACACCCAC
  binding result: no binding
